We go through 21 molecules from patent US20230331824A1 (ROCKEFELLER UNIVERSITY, published 2023).

For assay [1], the target named is T1, recombinant SARS-CoV-2 spike S2-His (SARS-CoV-2, UniProt P0DTC2 686-1213).
T1 construct: domain: S2
The assay can be described thus: pull-down on immobilized S2, band quantified.

Assay [2] has as its target SARS-CoV-1 spike on pseudovirus (SARS-CoV-1, UniProt P59594 14-1255). Put plainly: cell-based or functional assay.
In assay [3] the target is T2, recombinant SARS-CoV-2 spike RBD (untagged) (SARS-CoV-2, UniProt P0DTC2 319-541).
T2 construct: domain: RBD
The assay can be described thus: periplasm pull-down on immobilized S1-RBD, SDS-PAGE.

For assay [4], the target named is T3, SARS-CoV-2 spike protein (SARS-CoV-2, UniProt P0DTC2 14-1273). The assay can be described thus: cell-based or functional assay.
For assay [5], the target named is T2, recombinant SARS-CoV-2 spike RBD …. Put plainly: SPR.
Assay [6] concerns the target T4, recombinant SARS-CoV-2 spike S1-His (SARS-CoV-2, UniProt P0DTC2 16-685).
T4 construct: domain: S1
The assay can be described thus: pull-down on immobilized S1, band quantified.

For assay [7], the target named is T2, recombinant SARS-CoV-2 spike RBD …. Put plainly: SPR. The source holds these as a separate data set. For orientation: In SPR one partner is held on a chip, and binding of the other changes the refractive index at the surface.
In assay [8] the target is T3, SARS-CoV-2 spike protein. Put plainly: cell-based or functional assay. The source holds these as a separate data set.

Where two headings read alike, the source gives them in different places.

B1: S2-20 (VHH)
VHH: QVQLVESGGGLVQPGGSLRLSCAASGFTLTYYTISWFRQAPGKEREWVSSSRISGNTYYTDSVKGRFTISRDNAKSVVYLQMNSLKPEDTATYYCASGRNIPYDTYTNPTKYDYWGRGTQVTVS
notes: also called S2 Nanobody # 20
With B1, in assay [1], the binding result is “binds”.

B2: S1-3 (VHH)
VHH: QVQLVESGGGLVQAGGSLRLSCAASGSTFSNTGLGWYRQAPGKQREWVASISPSGSTSYLDSVRGRFIFSRDNAKNIAYLQMNSLKPEDTAVYYCNTLPRSGSWGQGTQVTVS
As for B2, the “SARS-CoV-1 PSV neutralisation IC50” value in assay [2] was determined as 4160 nM.

B3: S1-RBD-13 (VHH)
VHH: EVQLVESGGGLVQAGGSLRLSCAAPTLTLSSHTIGWFRQAPGKEREGVSYIPMTGLPIYCRDSVKGRFTISTDNAKNTVYLQMDSLKPEDTAVYYCAALLGVRSRMCPESVYTYWGQGTQVTVS
notes: also called S1-RBD Nanobody # 13
For B3, the binding result in assay [3] is reported as “binds”.

B4: S2-12 (VHH)
VHH: QVQLVESGGGLVQAGGSLRLSCVASEPTFSSRTMGWFRQAPGKERDFVAAMPWWKGALPNYKDSVKGRFTISIDSAKNTMYLQMNSLKPEDTAVYYCAASKTWSPRTEVATEHEFRGQGTQVTVS
notes: also called S2 Nanobody # 12
As to B4, the binding result in assay [1] is “binds”.

B5: S1-RBD-29 (VHH)
VHH: QVQLVESGGGLVQDGGSLRLSCAASGLASIVFNMGWFRQAPGKEREFVAGILGSGQSTYYGNSVKGRFTISRDSAKNTVYLQMNSLKPEDTAVYYCAAGGRLDLVNTTGGYEPTYWGQGTQVTVS
As a reminder, the Kd is the concentration at which binding is half-saturated. As usually defined, the koff is the first-order rate constant of dissociation. The term kon denotes the second-order rate constant of association. As for B5, the “PSV neutralisation IC50” value with SARS-CoV-2 spike protein [4] amounted to 9.53 nM. Further, in assay [5], the Kd worked out at 2.51 nM, the koff was found to be 0.00135 s⁻¹ and the kon is 536000 M⁻¹ s⁻¹.

B6: S2-24 (VHH)
VHH: QVQLVESGGGLVQAGGSLRLSCAASGVTFSSHHMAWYRQTPGKQRELVATLASGGDTNYADSVKGRFTISRDNTKNTIYLQMNSLKPEDTAVYYCNARLWATGFRDYWGQGTQVTVS
notes: also called S2 Nanobody # 24
Turning to B6, in assay [1], the binding result was “binds”.

B7: S2-34 (VHH)
VHH: QVQLVESGGGLVQTGGSLRLSCAASGITFNTYGMGWYRQAPGKQRELVAGIPSIGNINYARFVQGRFTVSRDDGKKAVYLQMNSLKPEDTAIYYCNLQTRFGTNYWGQGTQVTVS
notes: also called S2 Nanobody # 34
Turning to B7, the binding result in assay [1] was “binds”.

B8: S1-18 (VHH)
VHH: QVRLVESGGGLVQPGGSLRLSCVVSGVSGSAFRFNRLGWYRQPPGKERELVASISSGGSTNYADSVKGRFTISRDNAKSTVSLQMNSLKPEDTAVYYCNIRADFFSSGRTGDWGQGTQVTVS
notes: also called S1 Nanobody # 18
On to B8, for which, in assay [6], the binding result is “binds”.

B9: S2-49 (VHH)
VHH: DVQLVESGGGLVQPGGSLRLSCAVSGLTLPYFTISWFRQAPGKEREWVSSSRITGNTYYADSVKGRFTVSRDNAKSTVYLQMNRLKAEDTATYYCASGRNINYYTNSAEYNYWGRGTQVTVS
notes: also called S2 Nanobody # 49
Regarding B9, the binding result in assay [1] is “binds”.

B10: S1-8 (VHH)
VHH: QVQLVESGGGLVQAGGSLRLSCAASGRVLSSYVMGWFRQAPGKEREFVAAIRWNGGSTFYADSVKGRLTISRDNAKNTVYLQMNSLKPEDTAAYYCAASPRTMYDATYYYSRTSYDYWGQGTQVTVS
notes: also called S1 Nanobody # 8
Regarding B10, the binding result in assay [6] is given as “binds”.

B11: S1-13 (VHH)
VHH: EVQLVESGGGLVQPGGSLKLSCAASGFTLDDYTIGWFRQAPGKEREGVSYISSSGSNSYYEDSVKGRFTISRDNAKSTVYLQMNSLKPEDTAVYYCAARRVWQQTIVVRGPVHYEYWGHGTQVTVS
notes: also called S1 Nanobody # 13
Turning to B11, the binding result in assay [6] is “binds”.

B12: S2-37 (VHH)
VHH: QVQVMESGGGLVQAGGSLRLSCAASTGILGGYDMRWYRQTPGNERELVASISSDGSTNYVDFVKGRFTISSDNAKNTVYLQMDSLKSEDTAVYYCNMRSTYYAIDYWGRGTQVTVS
notes: also called S2 Nanobody # 37
Take B12: the binding result in assay [1] is given as “binds”.

B13: S1-RBD-16 (VHH)
VHH: QVQLVESGGGLVQSGGSLRLSCVASGRGFDRYPMGWFRQAPGKEREFVGGINWNGANTYYADSVKGRFTISRDNTKNTVYLQMNSLKPEDTALYYCAADQHYMGSPPPKEYEYDYWGQGTQVTVS
Turning to B13, in assay [7], the Kd was determined as 3.73 nM, the koff amounted to 6.25e-05 s⁻¹ and the kon amounted to 16800 M⁻¹ s⁻¹. Moreover, the “PSV neutralisation IC50” value with SARS-CoV-2 spike protein [8] is 79.2 nM.

B14: S2-44 (VHH)
VHH: QVQFVESGGGLVQPGGSLRLSCVGSEFTLDNYDIGWFRQAPGKEREWVSCITPRGNIINYADSVKGRFTISRDNAKNTAFLQMNSLKPEDTAVYYCARSSALYDCSQRQTRFFSSWGQGTQVTVS
notes: also called S2 Nanobody # 44
As to B14, the binding result in assay [1] is listed as “binds”.

B15: S1-RBD-40 (VHH)
VHH: QVQLVESGGGLVQAGGSLRLSCAASGITFSNYGMVWWRQAPGKQREFVASISSGRDTNYADFVKGRFTISRDNAKNTVHLQMNSLKPEDTAVYYCYTVTDRSDYWGQGTQVTVS
With B15, the “PSV neutralisation IC50” value with SARS-CoV-2 spike protein [4] is 25.6 nM. Further, in assay [5], the Kd was found to be 0.0371 nM, the koff is 2.77e-05 s⁻¹ and the kon is 747000 M⁻¹ s⁻¹.

B16: S2-45 (VHH)
VHH: QVQLVESGGGLVQAGGSLRLSCAASGLTFSSRAMAWFRQAPGKEREFVARISWSGRNTYYGDSVKGRFTISRDNAKNTVYLQMSSLEPEDTAVYRCAADQQYYNRYYNDEQGYAFWGQGTQVTVS
notes: also called S2 Nanobody # 45
Turning to B16, the binding result in assay [1] is given as “binds”.

B17: S2-29 (VHH)
VHH: QVQLVESGGGLVQPGGSLRLSCAASGRIFSSNAMGWYRQAPGKEREWVACISSGSSTNYADSVKGRFTISRDNAKNTVYLQMNSLKPEDTAVYYCISKEVGWCGREGPIGSWGQGTQVTVS
notes: also called S2 Nanobody # 29
For the molecule B17, the binding result in assay [1] is listed as “binds”.

B18: S1-RBD-23 (VHH)
VHH: QVHLVESGGDLVQPGGSLRLSCVASGSGFENNAITWYRQAPGKERELVSGITSGGSTNYADSVKGRFTISRDNAKNTVYLEMNSLKPEDTAVYLCQAVAWDSRRRSVVAFWGQGTQVTVS
In the case of B18, in assay [7], the Kd was determined as 0.0159 nM, the koff is 4.61e-05 s⁻¹ and the kon turned out to be 2.89e+06 M⁻¹ s⁻¹. In the assay with SARS-CoV-2 spike protein [8], the “PSV neutralisation IC50” value was determined as 7.31 nM.

B19: S1-1 (VHH)
VHH: QVQLVESGGGLVQAGGSLRLSCAASGMPFSSYAMGWFRQAPGKEREFVAAVNWNGISTYLADSVKGRFTASRDNAKNTAYLQMNSLKPEDTAVYYCAADSKGWSEWGMDYWGKGTLVTVS
On to B19, for which the “SARS-CoV-1 PSV neutralisation IC50” value in assay [2] was 8.62 nM.

B20: S2-30 (VHH)
VHH: QVQLVESGGGLVQAGGSLRLSCAASGSTFGNYAMGWYRQPPQAPGNQRDLVAFISTTGSTNYADSVKGRFTISRDNAKNTMYLQMNSLKPEDTAVYYCQAIERIVGYVSWGQGTQVTVS
notes: also called S2 Nanobody # 30
As to B20, the binding result in assay [1] is “binds”.

B21: S2-23 (VHH)
VHH: QVQLVESGGGLVQPGGSLRLSCAASGRTFSSAMMGWFRQAPGKEREFVASIDWRYQYRYYADSVKGRFTISRDNAKNMVYLQMNSLKPEDTAVYYCACQIERSGIYHYEDSNKYQSWGQGTQVSVS
notes: also called S2 Nanobody # 23
As for B21, the binding result in assay [1] was “binds”.
